B1: MmPNMA5 (natural protein, mouse, UniProt Q5DTT8 1-618, looked up)
chain: MAVALLDDWCKGMDLDPKKAVLIVGIPVQYTEAAINDALKEGLPPLCAYKVIGRMFRREDEAKAVLIELPEVVDYTMMPTHIPAEGGAWEVVVKPRSPDDEFMNKLIYFLRDEGRRIVDVAKALGFSTVPTGKIELKNLDQDKPKGLKSLCNNSTCYKKLKVFSGSPFPGPGEESFETWLEEVTELMQLWQVSEREKKQCLLESLRGSALSIMQALWTSNDSLTVEQCLKALKHIFGNKEDSKVLQFRFLQSSQKPAEKVSDYLLRLEPLLQKAVQQSPLSAHSADSIRLKHVLSQVSMTTGLRGKLSLLDQQGCPPTFLELMKLTRDEEEWESTVVVEEQEQVRRDSSACEAANEVVTQAEDSREVSTQTTGEEMTSVKRRRLLWRHSAGEEGQRKESGFWAESEPDEQKPYVRAQESGNERGAWAVSHPNPKEIEAQDSQEFLPVAGNRDTLTKSWGSPDKGTGDMSVAEGQQGQGKAPNFLLARNDPNKQEQIPHSSVTTKWQDRGECQRLKWGASMITRPQGNPDRSWDTSGSQDGEDGCSELRMPTGTEAAQGVEEPATGLSWAEDTSAWEQARLGRETVPRRGGRRIQPVFRIIYTALGEPHEGSTLESFRE
B2: MmPNMA3 (natural protein, mouse, UniProt Q8JZW8 1-466, looked up)
chain: MPLNLLQDWCRGEHLNTQRSMLILGIPEDCSEDEFEETLHEALKHLGRYRIIGRMFRREENAQAFLVELARDFDYALVPREIEGKGGPWEVVVKPPHSDDEFLNRLNHFLEEERRTVSDMNRVLGTHSNHSPTKTTISADFWVWAQTLGAVMQPLLEQMLYRELRVFSGNTISIPGLLAFDSWLEHTTEMLQMWQVPEVEKRRRLMECLRGPALQVVNVLRANNAAITVKECLEALRQVFGSVDNRKIAQLKFCKAYQEPGEKVSSFVVRLETLLQKALEKNAISRKNVNQTRLKRILGGAILSAKLREKLKMLKQRRRPPGFLALVKLFREEEEEWEATRGSERSCYEGLELGPSPSNIGSEERELFVPAFGSVLEERPYQGSRRRRHRRRGQHRKGGVPRDDSQGTRKQNYDTFCYSCGEDGHIRVHCFNPSNRTLVKQKRQAAMEKGNRSWAWEKSHPKPKTK
B3: MmMOAP1 (natural protein, mouse, UniProt Q9ERH6 1-352, looked up)
chain: MTLRLLEDWCRGMDMNPRKALLVAGIPPTCGVADIEEALQAGLAPLGEHRLLGRMFRRDENKNVALIGLTVETGSALVPKEIPAKGGVWRVIFKPPDTDSDFLCRLNEFLKGEGMTMGELTRVLGNRNDPLGLDPGIMIPEIRAPMLAQALNEALKPTLQYLRYKKLSVFSGRDPPGPGEEEFESWMFHTSQVMKTWQVSDVEKRRRLIESLRGPAFEIIRVLKINNPFITVAECLKTLETIFGIIDNPRALQVKYLTTYQKTDEKLSAYVLRLEPLLQKLVQKGAIEKEVVNQARLDQVIAGAVHKSVRRELGLPEGSPAPGLLQLLTLIKDKEAEEEEVLLQAELEGYCT

This series concerns the molecule itself. Kind of series: SEC + other: electron microscopy.
For the protein B1, the binding result is reported as “binds”.
The same measure for B2: “binds”.
Under B3 stands “binds”.

The values above are taken from publication PMC8431961 (Science (New York, N.Y.), 2021).
